Entries after “also recorded” stand apart in the source; their conditions may differ.
Test system: gastric NET with lymph node and hepatic metastases
Assay: PET/CT imaging in a NET patient
Type: in vivo, human
Conditions: [68Ga]Ga-DOTA-NOC 1 h pi, [68Ga]Ga-DATA5m-LM4 10 min–3 h pi
From the text: After a preceding PET/CT imaging with [^68Ga]Ga-DOTA-NOC ([^68Ga]Ga-DOTA-[1-Nal^3]octreotide), the patient underwent first PET/CT with [^68Ga]Ga-DATA^5m-LM4 on a dedicated GE Discovery 710 × 128 Slice PET/CT Scanner (GE HealthCare Technologies Inc.,/GE Healthcare, Chicago, IL, USA), with a 40 mm detector at a 0.35 s rotation speed and a 128-slice CT scanner. The images were corrected for random and scatter counts, decay correction and dead time correction. PET images were reconstructed with iterative reconstruction using ordered subset expectation maximization algorithm (OSEM) (2 iterations, 24 subsets). They were processed and analyzed with a dedicated commercially available workstation (GE Xeleris). Further details on the patient preparation, scan and data acquisition protocol are included in the Supplementary Materials.
Radiosynthesis of [68Ga]Ga-DATA5m-LM4 and [177Lu]Lu-AAZTA5-LM4 for Patient […]
For radiolabeling of DATA5m-LM4 with Ga-68, [68Ga]GaCl3 (200 MBq) obtained from a commercial [68Ge]Ge/[68Ga]Ga-generator (ITM Isotope Technologies Munich SE, Garching, Germany) was added in a vial containing a solution of DATA5m-LM4 (50 µg, 32.5 nmol) in 500 µL of 1 M sodium acetate buffer pH 4.5. The reaction mixture was heated for 15 min at 95 °C, affording [68Ga]Ga-DATA5m-LM4 in a radiochemical purity […]

Substance: [^68Ga]Ga-DOTA-[1-Nal^3]octreotide [[^68Ga]Ga-DOTA-NOC]
- uptake in liver metastases on PET/CT: mild to negligible uptake; also recorded: weak uptake

Source: article PMC10053881 (Pharmaceutics, 2023)
